Results taken from the nanobody polyreactivity screen of Harvey et al. (2022).

Test: yeast display, Sf9 membrane polyspecificity reagent, FACS + sequencing; frameworks hold sequencing errors
How it was run: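 Using colony PCR, genes from sorted yeast display clones were amplified, then sequenced on MiSeq at 2 × 250 and filtered by CDR length. The clones had been stained with 10% biotinylated, detergent-solubilized Sf9 membrane reagent for 1 hour at 4 °C and sorted by FACS into low and high (top ~1%) gates on anti-HA and streptavidin fluorescence. Polyreactivity labels come from the gate of origin.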

Sequence | polyreactivity (PSR sort gate)
QVQLVESGGGLVQAGGSHRLSCAPSGFTLADYTMAWYRPAPGKERELVAAITSGASTYYADSVKGRFTISRDNAKNTVYLQMNSLKPEDTAGYYCAARNDYYNTFSGYDYWGQGTQVTVSS | low polyreactivity
QVQLVESGGGLDQAGGSLRLSCAASGRIFTVYGMGWYRQAPGKERELVAAISWSGGGTYYADSVKGRFTISRDNAKNTVYLQMNSLKPEDTAVYYCNADRQYTWSLVFFSSDYDYWGQGTQVTVSS | low polyreactivity
QVQLVESGGGLVQAGGSLRLSCAASGSIFAHYTMGSYRQAPGKEREFVAAITKSGGRTYYADSVKGRFTISRDNAKNTVYLQMNSLKPEDTAVYYCARRRTIPYTLVDYDSWGQGTQVTVSS | low polyreactivity
QVQLVESAGGLVQAGGSLRLSCAASGFIINKYTMGWYRQAPGKERELVAAITWSGGTTYYADSVKGRFTISRDNAKNTVYLQMNSLKPEDTAVYYCAAYYYRGRVGAYDYWGQGTQVTVSS | high polyreactivity
QVQLVESGGGLVQAGGSLRLSCAASGRIFYRNTMGWYRQAPGKERELVAAITRSGGITNYADSVKGRFTISRDNAKNTVYLQMNSLKPEDTAVYYCNAAYLYSASRGVYRYRGDYWGQGTQVTVSS | high polyreactivity
QVQLVESGVCLVQAGGSLRLSSAASGRTLDQNTMGRYRQAPGKERELVASITYSGGITYYADSVKGRFTISSDNAKNTVYLQMNSLKPEATAVYYCAAQEHGTYDNILGEPLDYWGQGTQVTVSS | low polyreactivity
QVQLVESGGGLVQAGGSLRLSCAASGFTFYSYAMGWYRQAPGKERELVAAISWSGTRTYYADSVKGRFTISRDNAKYTVYLQMNSLKPEDTAVYYCAARGYRYGYGYWGQGTQVTVSS | high polyreactivity
QVQLVESGGALVQAGGSLRLSCAASGSTFRYDMGWYRQAPGKERELVAAITWGGVSTYYADSVKGRFTISRDNAKNTVYLQMNSLKPEDTAVYYCNVVISLQQGDYWGQGTQVTVSS | low polyreactivity
QVQLEVSGGGLDQAGGSLRLSCAASGFTFVYYVMGCYRQAPGKQWELVAAINAGGGSTYYADSVKGRFTISRDNAKNTVYLQMNSLKPEDTAVYYCNARVRVRLGRNWSSYYYWGQGTQVTVSS | high polyreactivity
QVQLVESGGGLVQAGGSLRLSCAASGRIFVYYVMGWYRQAPGKERELVAAITYSGGSTYYADSVKGRFTISRDNAKNTVYLQMNSLKPEDTAVYYCNKVDAFGIVRLYYWGQGTQVTVSS | low polyreactivity
QVQLEESGGGLVQAGRSLRFSCAASGRIFPWYTMGWYRPAPGKERELVAVISSGGRTHYADSVKGRFTISRDNAKNTVYLQMNSLKPEDTAVYYCAGESRYQRYDYWRQGTQVTVSS | high polyreactivity
QVQLVESGGGLVQAGGSLRLSCAASGRIFPYYAMGWYRQEPGKEREFVAAISSSGDSTYYADSVKGRFTISRDNAKNTVYLQMNSLKPEDTPVYYCATRYRSSQWYSPYKYDYWGQGTQVTLSS | low polyreactivity
KGQLVESGGGLVQAGGSLRLTCAASGSNFRFYAMGWYRQAPGKERELVAAITYRSGITYADSVKGRFTISRDNAKNTVYVQMNSLKPEDTAVYYCAARARRYTDEYDYWGQGSQVTVSS | low polyreactivity
QVQLVESGGGLVQAGGSLRLSCAASGRTLGYYAMGWYRQAPGKERELVAAISRSGGSTYYADSVKGRFTISRDHAKNTVYLQMNSLKPEDTAVYYCAATYGPSRYRYDYWGQGTQVTVSS | high polyreactivity
QVQLVESGGGLVQAGGSLRLSCAASGSIFVQYAMGWYRQAPGKERELVAGITISGGRTYYADSVKGRFTISRDNAKNTVYLQMNSLKPEDTAVYYSNADVTRASSRYNSWGQGTQVTVSS | low polyreactivity
QVQLVESGGGLVQAGGSLRLSCAASGLTFIPNAMGWYREAPGKERELVAAISGTGGSTYYADSVKGRFTISRDNAKNTVYLLMNSLKPEDTAVYYCAARRRYKSGYWGQGTQVTVSS | high polyreactivity
QVQLVESGGGLVQAGGSLRLSCAASGRTFYHYTMGWYRQAPGKARELVAAITSGGSTYYADSVKGRFTISRDYAKNTVYLQMNSLKPEDTAVYYCARVRPLYHFSRYDDCGQGTQVTVSS | high polyreactivity
